Measurements from paper PMC9405973, “Altered Conformational Landscape upon Sensing Guanine Nucleotides in a Disease Mutant of Elongation Factor-like 1 (EFL1) GTPase” (Biomolecules, 2022).
Values joined by “and” are separate entries in the source; they are usually repeats but may differ in a detail not shown here. Identical values can stand only once.

Experiments:
[1] = target: T1, S. cerevisiae Efl1 R1086Q (S. cerevisiae, UniProt P53893 1-1110, R1086Q); assay: ITC; 25 °C; GTPase in the cell (30-50 µM), Sdo1 as ligand; 50 mM Tris-HCl pH 8.0, 150 mM NaCl, 100 µM DTT, 5% glycerol; one-binding-site model; details: both partners purified
T1 construct: Elongation Factor-like 1 (Efl1) GTPase of S. cerevisiae with the mutation R1086Q, equivalent to human EFL1 R1095Q; also called mutant Efl1; mutant R1086Q; source: recombinantly expressed in S. cerevisiae, purified
T1 sequence (looked up): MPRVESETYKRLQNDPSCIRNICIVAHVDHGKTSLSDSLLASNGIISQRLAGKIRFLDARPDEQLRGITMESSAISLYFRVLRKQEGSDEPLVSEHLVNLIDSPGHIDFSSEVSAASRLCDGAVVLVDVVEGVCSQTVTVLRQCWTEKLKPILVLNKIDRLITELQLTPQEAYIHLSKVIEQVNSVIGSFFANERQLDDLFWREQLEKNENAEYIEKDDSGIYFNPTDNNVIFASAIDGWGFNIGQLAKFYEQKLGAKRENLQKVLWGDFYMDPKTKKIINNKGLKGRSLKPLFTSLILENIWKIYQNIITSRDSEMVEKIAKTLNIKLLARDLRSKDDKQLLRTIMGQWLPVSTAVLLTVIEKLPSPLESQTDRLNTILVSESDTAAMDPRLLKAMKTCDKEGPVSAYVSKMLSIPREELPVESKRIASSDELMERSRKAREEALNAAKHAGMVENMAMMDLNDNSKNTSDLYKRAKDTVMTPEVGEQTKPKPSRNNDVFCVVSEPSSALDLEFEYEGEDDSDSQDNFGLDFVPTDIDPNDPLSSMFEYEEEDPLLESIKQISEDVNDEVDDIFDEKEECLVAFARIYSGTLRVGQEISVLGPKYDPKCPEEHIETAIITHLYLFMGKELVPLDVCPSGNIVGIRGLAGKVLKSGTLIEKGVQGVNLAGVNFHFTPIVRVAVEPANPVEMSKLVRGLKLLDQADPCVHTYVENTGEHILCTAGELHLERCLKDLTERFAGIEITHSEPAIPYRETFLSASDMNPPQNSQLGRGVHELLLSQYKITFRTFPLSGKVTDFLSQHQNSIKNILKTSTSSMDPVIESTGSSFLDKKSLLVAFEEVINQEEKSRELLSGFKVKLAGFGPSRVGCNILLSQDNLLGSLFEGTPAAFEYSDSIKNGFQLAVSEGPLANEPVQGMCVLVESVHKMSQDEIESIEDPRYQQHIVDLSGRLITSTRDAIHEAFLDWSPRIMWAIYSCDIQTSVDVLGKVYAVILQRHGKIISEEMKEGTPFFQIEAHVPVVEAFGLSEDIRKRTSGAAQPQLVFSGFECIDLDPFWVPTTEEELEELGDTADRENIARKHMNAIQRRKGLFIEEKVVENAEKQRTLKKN

Efl1 R1086Q = target: T2, Efl1 R1086Q (Saccharomyces cerevisiae, UniProt P53893, R1086Q); assay: Isothermal titration calorimetry (ITC): binding of guanine nucleotides or Sdo1 to Efl1 R1086Q
T2 construct: made in house; host or cells: Saccharomyces cerevisiae
Protocol: All calorimetric measurements were carried out using MicroCal^TM iTC200 System (GE Healthcare, Northampton, MA, USA) in a temperature range of 25–35 °C. Experiments were performed in a buffer consisting of 50 mM Tris-HCl (pH 8.0), 150 mM NaCl, 100 µM DTT, and 5% glycerol. In the titrations with Mg^2+-bound nucleotides, both the ligand and protein solutions contained 5 mM MgCl2. In the case of titrations with Mg^2+-free nucleotide, both the ligand and protein solutions were supplemented with 2 mM EDTA to sequester any residual trace of metal ions in solution. Protein samples and ligands were prepared in the exact same buffer prior to each titration. Protein concentration in the cell comprised 30–50 µM GTPase, while the ligand concentration in the syringe was 2–3 mM for GTP, MgGTP, GDP, and MgGDP. To ensure measuring the interaction of the complex Efl1 R1086Q•Sdo1 with the nucleotide, an eight-fold concentration excess of Sdo1 was used compared with that of the enzyme. […] The titration schedule consisted of 15–20 consecutive injections of the ligand with 5 min intervals between injections and a stirring rate of 700 rpm. The dilution heat of the ligand was obtained by adding the ligand to a buffer solution under identical conditions and with the same injection schedule used for the protein sample. All samples were degassed for 10 min prior to the experiment.
The binding isotherms obtained for the isolated GTPase in the presence of Mg(II) were analysed using a ternary model in which the protein can bind to the free nucleotide (G(D)TP) or that bound to one magnesium ion (MgG(D)TP); additionally, GTP may also exist in the form of Mg2GTP, which is not recognised by the protein. The derivation of this coupled-equilibria model can be reviewed in [6, 31]. The binding constant (Kb), the enthalpy change (∆Hb), and the stoichiometry (n) were obtained with the non-linear routines implemented in Origin 5.0 (OriginLab, Co., Northampton, MA, USA) using a one-binding-site model as described in [32, 33]. The heterotropic cooperativity for the binding of guanine nucleotides and Sdo1 to Efl1 R1086Q were calculated as previously described in [6, 32]. The cooperative effects of Mg(II) on the binding of guanine nucleotides to Efl1 R1086Q alone and bound to Sdo1 were calculated as follows:κ = KE-MG/KE-G κ = KES-MG/KES-G Δh = ΔHE-MG − ΔHE-G Δh = ΔHES-MG − ΔHES-G where subscripts E-MG and E-G stand for the association of the metal-bound and metal-free guanine nucleotide with mutant Efl1, respectively. Corresponding expressions applied to the heterotropic cooperativity of the binding of nucleotides to the preformed complex, Efl1•Sdo1 (ES).
The impact of Sdo1 on the binding of Efl1 R1086Q to guanine nucleotides in the presence of magnesium ions is contained in KES-MG and ΔHES-MG relative to the KE-S and ΔHE-S values; analogous ratios report the effects in the absence of Mg(II):κ = KES-MG/KE-S κ = KES-G/KE-G Δh = ΔHES-MG − ΔHE-S Δh = ΔHES-G − ΔHE-G
The corresponding cooperative entropy change was calculated as:TΔs = Δh − Δg = Δh + RTlnκ
The detailed methodology and equations to compute the changes in the accessible surface area (∆ASA) of the GTPase upon binding to nucleotides and the ∆S energetic-based parameters are reported in [6]. Briefly, the water-accessible areas (ASAs) were computed using programme NACCESS, while the changes in accessible surface area (ΔASA) upon the formation of each GTPase–nucleotide complex were estimated considering the difference between the complex and the sum of the free interacting partners. The calculated polar (ΔASAp) and apolar (ΔASAap) area changes were subsequently used to estimate the free molecular partners. […]

wild-type Efl1 = details: cited from earlier work
[2] = target: T1, S. cerevisiae Efl1 R1086Q; assay: ITC; 35 °C; GTPase in the cell (30-50 µM), Sdo1 as ligand; 50 mM Tris-HCl pH 8.0, 150 mM NaCl, 100 µM DTT, 5% glycerol; one-binding-site model; details: both partners purified
[3] = target: T1, S. cerevisiae Efl1 R1086Q; assay: ITC; 30 °C; GTPase in the cell (30-50 µM), Sdo1 as ligand; 50 mM Tris-HCl pH 8.0, 150 mM NaCl, 100 µM DTT, 5% glycerol; one-binding-site model; details: both partners purified
[4] = target: T1, S. cerevisiae Efl1 R1086Q; assay: ITC; coupled equilibria at 30 °C with MgGDP (5 mM MgCl2); heterotropic cooperativity calculated from the titrations of Efl1 R1086Q and of Efl1 R1086Q•Sdo1; details: both partners purified

B1: Yeast SBDS (Sdo1) (natural protein, S. cerevisiae, UniProt Q07953 1-250, looked up)
chain: MPINQPSGQIKLTNVSLVRLKKARKRFEVACYQNKVQDYRKGIEKDLDEVLQIHQVFMNVSKGLVANKEDLQKCFGTTNVDDVIEEIMHKGEIQLSEKERQLMLNKVNNEMLTIVSAKCINPVSKKRYPPTMIHKALQELKFSPVINKPAKLQALEAIKLLVSKQIIPIVRAKMKVKVAISEPSRQPELIEKISKLIASSPGESTKPELDPWTCTGLIDPVNYRDLMTLCDKKGTVQVLDMAVIDNTTHN
notes: Sdo1, the yeast orthologue of SBDS; also called yeast Shwachman-Bodian-Diamond syndrome protein; source: E. coli C41, purified
Ka [1]: 256000 ± 47000 M⁻¹
Kd [1]: 3900 ± 700 nM
dH [1]: -4.3 ± 0.1 kcal/mol
-TΔSb (Efl1 R1086Q; ligand Sdo1, 25 °C): -3.1 kcal/mol
ΔGb (Efl1 R1086Q; ligand Sdo1, 25 °C): -7.4 kcal/mol
-TΔSb (Efl1 R1086Q; ligand Sdo1, 30 °C): -1.3 kcal/mol
ΔGb (Efl1 R1086Q; ligand Sdo1, 30 °C): -7.6 kcal/mol
Kd (Efl1 R1086Q; ligand Sdo1, 30 °C, read-out: Kd): 3000 nM
-TΔSb (Efl1 R1086Q; ligand Sdo1, 35 °C): 0.6 kcal/mol
ΔGb (Efl1 R1086Q; ligand Sdo1, 35 °C): -8.1 kcal/mol
ΔCpb (Efl1 R1086Q; ligand Sdo1, from ΔHb at 25–35 °C): −440 cal mol^−1 K^−1 and −440 ± 23 cal mol^−1 K^−1
-TΔSb (wild-type Efl1; ligand Sdo1, 30 °C): 4.4 kcal/mol
Kd (wild-type Efl1; ligand Sdo1, 30 °C): 300 nM
ΔGb (wild-type Efl1; ligand Sdo1, 30 °C): -9.0 kcal/mol
ΔHb (wild-type Efl1; ligand Sdo1, 30 °C): -13.4 ± 0.4 kcal/mol
ΔCpb (wild-type Efl1; ligand Sdo1): −860 cal mol^−1 K^−1 and −860 ± 31 cal mol^−1 K^−1
Ka [2]: 543000 ± 76000 M⁻¹
Kd [2]: 1800 ± 200 nM
dH [2]: -8.7 ± 0.1 kcal/mol
Ka [3]: 288000 ± 56000 M⁻¹
Kd [3]: 3400 ± 600 nM
dH [3]: -6.3 ± 0.2 kcal/mol
fold decrease of the interaction with MgGDP against no nucleotide [4]: 3 fold
